Laboratory results: publication doi:10.1101/2021.06.23.449282

Molecular target: directed activation strategy TMPRSS2 (activated TMPRSS2 ectodomain, residues 109-492, DDDDK255 activation motif) (human) (UniProt O15393)
Experiment: enzyme inhibition assay

“sunflower trypsin inhibitor-1 (from UniProt Q4GWU5 40-56) (peptide)” was tested, and the Ki was 400 nM.
